Here are results for seven molecules from patent US5663141A, “Hirudin/polyalkylene glycol conjugates and hirudin muteins” (BASF Aktiengesellschaft, priority 1989, dated 1997).

Data set [1] deals with thrombin (Homo sapiens, UniProt P00734). In words: thrombin inhibition assay with the chromogenic substrate S 2238 (specific activity). The class given is biochemical. The text has this:
The specific activity of the PEG1 -hirudin conjugate purified from the coupling mixture was 8,000 U/mg of protein (determined by the thrombin inhibition assay with the chromogenic substrate S 2238 (Kabi), (FEBS-Lett. (1983), 164, 307), protein determined by BCA assay with serum albumin as standard (Pierce)), and the molecular weight of the conjugate was 15,000 Da (Superose®-12 chromatography, Pharmacia).

Data set [2] is described as follows: Pharmacokinetics of PEG2-hirudin conjugates in dogs (plasma anti-factor IIa activity). The class given is in vivo. To be noted: beagle dogs, 4,000 U/kg intravenous or subcutaneous, compared with underivatized hirudin, FIGS. 3 and 4. On the procedure:
2 groups of dogs (beagle dogs, 4 animals in each group) each received intravenous or subcutaneous administration of 4,000 U/kg PEG2 -hirudin (0.2 ml vol). 2 ml samples of blood in 0.1M Na citrate were taken 0.25, 0.5, 1, 2, 3, 4, 6, 8, 24, 32, 48, 56, 72 and 80 h after the injection. Subsequently platelet-poor plasma was prepared by centrifugation at 4,000 g for 10 minutes, and the plasma PEG-hirudin concentration was determined by the thrombin inhibition in the chromogenic substrate assay with S 2238 (Kabi). For comparison, the same dogs were treated in another experiment with hirudin. The time course of the plasma hirudin concentration was subsequently determined as described above.
FIGS. 3 and 4 depict the time course of the anti-factor IIa activities after intravenous and subcutaneous administration of PEG2 -hirudin and underivatized hirudin.

Data set [3] addresses thrombin.
For data set [4] the following is noted: in vivo; cited from earlier work.
The mark [5] stands for this setting: purified conjugate, protein determined by BCA assay with serum albumin as standard.
The mark [6] stands for this setting: underivatized protein used as starting material.

Turning to “PEG1-hirudin: desulfatohirudin carrying one methoxy-polyethylene glycol(8000) residue, Example 9”, in the data set with thrombin [1] (setting [5]), the specific activity was 8,000 U/mg of protein.
On to “PEG2-hirudin: desulfatohirudin carrying two methoxypolyethylene glycol (8,000 Da) residues, Example 10”, for which the specific activity with thrombin [1] (setting [5]) is 6,200 U/mg of protein. In data set [2], the bioavailability entry is reported as “better” and the “duration of the biological action (anti-factor IIa activity time course)” value is reported as “distinctly prolonged”.
desulfatohirudin (from UniProt P01050) gave a specific activity with thrombin [3] of 8000 ATU/mg.
Take “desulfatohirudin: hirudin prepared by genetic engineering, sulfate residue on Tyr 63 absent; sequences 1A + 2A + 3A [reference compound]”: the specific activity in the data set with thrombin [1] (setting [6]) was 8,000 ATU/mg.
With “hirudin: naturally occurring anticoagulant protein of 65 amino acids from the leech Hirudo medicinalis, thrombin inhibitor”, the “half-life in the blood” value in data set [4] is “about 50 min”.

B1: HL 14B: hirudin mutein, Asp33→Lys33, Lys36→Arg36, Lys47→Arg47 (protein)
chain: VVYTDCTESGQNLCLCEGSNVCGQGNKCILGSKGERNQCVTGEGTPRPQSHNDGDFEEIPEEYLQ
Consider B1, for which the specific activity with thrombin [1] (setting [6]) is 8,900 ATU/mg.

B2: PEG2-HL 14B: hirudin mutein HL 14B carrying two methoxy-polyethylene glycol (8,000 Da) residues, Example 11 (conjugate)
chain: VVYTDCTESGQNLCLCEGSNVCGQGNKCILGSKGERNQCVTGEGTPRPQSHNDGDFEEIPEEYLQ
modifications: ends and bridges not checked; also: two methoxy-PEG (8,000 Da) on lysine side-chain amino groups, positions not given here
Consider B2, for which, in the data set with thrombin [1] (setting [5]), the specific activity is listed as 8,300 U/mg of protein.
